Numbering of substitutions follows the chain as printed. Like-named read-outs stand apart in the source and are kept apart here.
Legend:
S2hlx-Ex34 [1] = biological target: T1, S2hlx-Ex34; assay: ELISA; antigen coated, mAb titrated
T1 chain: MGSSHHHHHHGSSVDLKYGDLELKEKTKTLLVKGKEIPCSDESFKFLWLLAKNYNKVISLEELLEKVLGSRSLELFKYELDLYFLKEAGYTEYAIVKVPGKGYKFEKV

S2hlx-Ex34 L1145A = biological target: T2, S2hlx-Ex34 L1145A; assay: ELISA; antigen coated, mAb titrated
T2 epitope scaffold: T1 chain with L73A

S2hlx-Ex34 F1148A = biological target: T3, S2hlx-Ex34 F1148A; assay: ELISA; antigen coated, mAb titrated
T3 epitope scaffold: T1 chain with F76A

S2hlx-Ex34 [2] = biological target: T1, S2hlx-Ex34; assay: SPR, mAb captured, scaffold as analyte
S2hlx-Ex37 = biological target: T4, S2hlx-Ex37; assay: SPR, mAb captured, scaffold as analyte
T4 chain: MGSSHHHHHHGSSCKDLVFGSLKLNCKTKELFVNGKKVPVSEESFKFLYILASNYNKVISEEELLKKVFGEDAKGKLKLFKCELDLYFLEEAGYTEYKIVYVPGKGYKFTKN

S2hlx-Ex8-Trx = biological target: T5, S2hlx-Ex8-Trx; assay: SPR, mAb captured, scaffold as analyte
T5 chain: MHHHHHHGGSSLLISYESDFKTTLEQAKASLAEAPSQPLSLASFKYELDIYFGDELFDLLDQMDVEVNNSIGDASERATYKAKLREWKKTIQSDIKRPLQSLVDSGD

S2hlx-Ex54 = biological target: T6, S2hlx-Ex54; assay: SPR, mAb captured, scaffold as analyte
T6 chain: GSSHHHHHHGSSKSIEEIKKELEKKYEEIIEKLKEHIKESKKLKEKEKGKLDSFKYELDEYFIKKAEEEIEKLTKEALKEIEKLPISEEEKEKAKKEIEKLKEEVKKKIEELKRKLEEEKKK

S2hlx-Ex25 = biological target: T7, S2hlx-Ex25; assay: SPR, mAb captured, scaffold as analyte
T7 chain: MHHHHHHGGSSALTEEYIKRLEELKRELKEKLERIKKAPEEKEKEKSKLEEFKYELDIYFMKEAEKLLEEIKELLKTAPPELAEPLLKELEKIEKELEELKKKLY

S2hlx-15 [3] = biological target: T8, S2hlx-15; assay: SPR, mAb captured, scaffold as analyte
T8 chain: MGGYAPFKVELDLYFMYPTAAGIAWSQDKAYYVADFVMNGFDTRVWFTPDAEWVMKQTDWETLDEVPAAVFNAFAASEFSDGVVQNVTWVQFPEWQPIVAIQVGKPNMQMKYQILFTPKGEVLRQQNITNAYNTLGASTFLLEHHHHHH

S2hlx-Ex15 [4] = biological target: T9, S2hlx-Ex15; assay: SPR, mAb captured, antigen as analyte
T9 chain: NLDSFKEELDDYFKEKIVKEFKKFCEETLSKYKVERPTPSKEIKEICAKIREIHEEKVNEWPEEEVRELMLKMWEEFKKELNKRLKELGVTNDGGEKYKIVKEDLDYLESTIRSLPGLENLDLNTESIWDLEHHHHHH

S2hlx-Ex17 [5] = biological target: T10, S2hlx-Ex17; assay: SPR, mAb captured, antigen as analyte
T10 chain: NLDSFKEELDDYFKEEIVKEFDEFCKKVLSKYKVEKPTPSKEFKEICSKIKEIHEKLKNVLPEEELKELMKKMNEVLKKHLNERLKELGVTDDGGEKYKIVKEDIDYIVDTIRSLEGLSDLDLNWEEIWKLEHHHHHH

S2hlx-Ex20 [6] = biological target: T11, S2hlx-Ex20; assay: SPR, mAb captured, antigen as analyte
T11 chain: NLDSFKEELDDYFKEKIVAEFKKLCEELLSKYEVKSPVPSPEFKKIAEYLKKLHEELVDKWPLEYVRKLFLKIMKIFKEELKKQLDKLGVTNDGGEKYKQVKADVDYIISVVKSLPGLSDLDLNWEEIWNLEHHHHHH

S2hlx-4 = assay: SPR, mAb captured, antigen as analyte
S2hlx-15 [7] = biological target: T8, S2hlx-15; assay: ELISA, coated antigen, mAb titrated
S2hlx-1 = biological target: T12, S2hlx-1; assay: SPR, mAb captured, antigen as analyte
T12 epitope scaffold: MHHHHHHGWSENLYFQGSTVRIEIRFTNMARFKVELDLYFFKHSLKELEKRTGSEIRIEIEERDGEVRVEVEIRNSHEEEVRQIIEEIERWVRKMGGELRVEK

S2hlx-14 = assay: SPR, mAb captured, antigen as analyte
S2hlx-Ex15 [8] = biological target: T9, S2hlx-Ex15; assay: SPR, mAb captured, antigen as analyte
S2hlx-Ex17 [9] = biological target: T10, S2hlx-Ex17; assay: SPR, mAb captured, antigen as analyte
S2hlx-Ex20 [10] = biological target: T11, S2hlx-Ex20; assay: SPR, mAb captured, antigen as analyte
S2hlx-Ex4 = biological target: T13, S2hlx-Ex4; assay: ELISA, coated antigen, mAb titrated
T13 construct: backbone grafting design
T13 chain: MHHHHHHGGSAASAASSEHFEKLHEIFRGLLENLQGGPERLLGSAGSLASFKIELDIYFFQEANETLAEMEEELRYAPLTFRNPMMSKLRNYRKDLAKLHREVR

S2hlx-Ex3 = biological target: T14, S2hlx-Ex3; assay: ELISA, coated antigen, mAb titrated
T14 construct: backbone grafting design
T14 chain: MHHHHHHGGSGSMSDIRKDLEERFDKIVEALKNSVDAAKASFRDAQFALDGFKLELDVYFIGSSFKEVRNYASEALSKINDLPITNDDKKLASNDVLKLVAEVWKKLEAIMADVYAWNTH

S2hlx-Ex2 = biological target: T15, S2hlx-Ex2; assay: ELISA, coated antigen, mAb titrated
T15 construct: backbone grafting design
T15 chain: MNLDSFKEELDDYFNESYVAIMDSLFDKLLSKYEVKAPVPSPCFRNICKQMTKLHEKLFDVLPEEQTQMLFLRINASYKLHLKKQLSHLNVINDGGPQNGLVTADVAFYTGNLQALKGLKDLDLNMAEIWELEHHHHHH

Sequence of S2hlx-4 (chain, as listed by the source): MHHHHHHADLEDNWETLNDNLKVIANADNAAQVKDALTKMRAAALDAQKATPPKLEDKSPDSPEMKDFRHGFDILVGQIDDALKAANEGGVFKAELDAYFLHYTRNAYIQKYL

B1: S2P6 mAb (antibody, V domains shown)
VH: EVQLVQSGAEVKKPGASVKVSCKASGYTFTSQYMHWVRQAPGQGLEWIGIINPSGVHTSYAQKFQGRVTLTRDTSTSTLYMELSSLRSEDTAVYYCARGSPKGAFDYWGQGTLVTVSS
VL: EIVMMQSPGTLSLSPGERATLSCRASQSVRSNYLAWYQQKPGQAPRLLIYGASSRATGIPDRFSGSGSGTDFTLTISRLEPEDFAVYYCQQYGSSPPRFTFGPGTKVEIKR
EC50 (read off the curve) (S2hlx-Ex34 [1]): ~0.02 µg/mL
EC50 (read off the curve) (S2hlx-Ex34 L1145A): ~0.02 µg/mL
EC50 (read off the curve) (S2hlx-Ex34 F1148A): ~0.09 µg/mL
Kd (S2hlx-Ex34 [2]): 82 nM
Kd (S2hlx-Ex37): 664 nM
Kd (S2hlx-Ex8-Trx): 330 nM
Kd (S2hlx-Ex54): 45 nM
Kd (S2hlx-Ex25): 612 nM
Kd (S2hlx-15 [3]): 0.7 nM
Kd (S2hlx-Ex15 [4]): 6 nM
Kd (S2hlx-Ex17 [5]): 29.6 nM
Kd (S2hlx-Ex20 [6]): 10.7 nM
Kd (S2hlx-4): 47.7 nM
EC50 (read off the curve) (S2hlx-15 [7]): ~0.1 µg/mL
Kd (S2hlx-1): 52.8 nM
Kd (S2hlx-14): 30 nM
Kd (S2hlx-Ex15 [8]): 4 nM
Kd (S2hlx-Ex17 [9]): 29.6 nM
Kd (S2hlx-Ex20 [10]): 10.7 nM
EC50 (read off the curve) (S2hlx-Ex4): ~0.07 µg/mL
EC50 (read off the curve) (S2hlx-Ex3): ~0.06 µg/mL
EC50 (read off the curve) (S2hlx-Ex2): ~0.07 µg/mL

From US20240285753A1 (DUKE UNIVERSITY, published 2024)
